This passage reports Kd results from the Immune Epitope Database (IEDB).

Some results are limits rather than exact numbers.

In assay [1] the target is HLA-A*11:01. Put plainly: IEDB peptide-MHC binding, purified MHC/direct/fluorescence; filed as Kd, often an IC50 or EC50 that approximates it; ≥ and ≤ were set here for values at or beyond the usual limits of such assays.
Assay [2] deals with HLA-A*31:01. Put plainly: IEDB peptide-MHC binding, purified MHC/competitive/fluorescence; filed as Kd, often an IC50 or EC50 that approximates it; ≥ and ≤ were set here for values at or beyond the usual limits of such assays.
For assay [3], the target named is HLA-B*15:03. Put plainly: IEDB peptide-MHC binding, purified MHC/competitive/radioactivity; filed as Kd, often an IC50 or EC50 that approximates it; ≥ and ≤ were set here for values at or beyond the usual limits of such assays.
Assay [4] deals with HLA-A*32:01. The description is as above. The note with it: source organism: Vaccinia virus WR.
For assay [5], the target named is HLA-B*08:01. Described as above.
The target in assay [6] is HLA-A*03:01. The experiment in a line: IEDB peptide-MHC binding, purified MHC/direct/fluorescence; filed as Kd, often an IC50 or EC50 that approximates it; ≥ and ≤ were set here for values at or beyond the usual limits of such assays.
Assay [7] addresses HLA-B*15:01. The experiment in a line: IEDB peptide-MHC binding, purified MHC/competitive/radioactivity; filed as Kd, often an IC50 or EC50 that approximates it; ≥ and ≤ were set here for values at or beyond the usual limits of such assays. Particulars: source organism: Dengue virus 1 Brazil/97-11/1997.
Assay [8] concerns the target HLA-A*02:06. The assay is described as above. The note with it: source organism: Vaccinia virus WR.
For assay [9], the target named is HLA-A*02:03. The assay is described as above. Particulars: source organism: Vaccinia virus WR.
Assay [10] addresses HLA-A*02:02. The assay is described as above. The note with it: source organism: Vaccinia virus WR.
Assay [11] has as its target HLA-B*53:01. The assay is described as above.
The target in assay [12] is HLA-B*54:01. The description is as above.
Assay [13] deals with HLA-B*35:01. Described as above.
The target of assay [14] is HLA-B*51:01. Described as above.
For assay [15], the target named is HLA-B*07:02. The assay is described as above.
In assay [16] the target is HLA-A*02:01. The description is as above.
Where [17] appears, read: source organism: Vaccinia virus WR.
Setting [18] is: source organism: Vibrio vulnificus.
[19] abbreviates: source organism: SARS coronavirus Tor2.
Where [20] appears, read: source organism: Triticum aestivum.
The mark [21] stands for this setting: source organism: Orthohantavirus dobravaense.

In the case of KTHESHLVR, the dissociation constant (Kd) (as a rule, the equilibrium constant for the complex coming apart) in assay [1] (source organism: Yellow fever virus 17D) was determined as 0.0356 µM; in assay [2] (source organism: Yellow fever virus), 0.0212 µM.
Take FSVSFSPSL: the Kd in assay [3] (source organism: Vaccinia virus Copenhagen) was 0.0217 µM.
Turning to SQRFIFNII, the Kd was found to be 0.299 µM in [3] (setting [17]), 1.87 µM in assay [4] and 0.653 µM in assay [5] (setting [17]).
KGNVSALVK: the figures for the Kd in assay [6] (setting [18]), in [1] (setting [18]) and in assay [2] (source organism: Vibrio vulnificus YJ016) were 1.16 µM, 0.184 µM and not below 20 µM, respectively.
Regarding IMAIGIVSIL, the Kd amounted to 0.0272 µM in assay [7] and 0.445 µM in [5] (source organism: Dengue virus 1 Brazil/97-11/1997).
In the case of IMRNFLRSI, the Kd in assay [8] was determined as 3.92 µM; in assay [9] it was 0.000398 µM; in assay [3] (setting [17]) it was 0.106 µM; in assay [10], 0.485 µM.
For RQFEKDRSF, the Kd in assay [3] (setting [17]) was 0.000143 µM.
With TPKYKFVRI, the Kd in assay [11] (setting [19]) is 16 µM; in assay [12] (setting [19]), not below 46.2 µM; in assay [13] (setting [19]), not below 77.4 µM; in [14] (setting [19]), 16.1 µM; in [15] (setting [19]) it was not below 10 µM.
Turning to ANVNARNRF, the Kd in assay [3] (setting [17]) turned out to be 0.552 µM.
Consider QPFRPQQPY, for which the Kd was not below 35.2 µM in [11] (setting [20]); not below 78.1 µM in assay [12] (setting [20]); 0.296 µM in assay [13] (setting [20]); not below 77.5 µM in assay [14] (setting [20]); not below 77.5 µM in assay [15] (setting [20]).
For PPCQCTVQEF, the Kd in assay [11] (setting [17]) was 5.15 µM; in [12] (setting [17]), not below 69.9 µM; in assay [13] (setting [17]) it was not below 23.4 µM; in assay [14] (setting [17]), not below 69.6 µM; in [15] (setting [17]), not below 45.3 µM.
The matching figures for QPEKEIPEY: 0.0452 µM, not below 43.7 µM, 0.0156 µM, not below 37.7 µM and not below 36.9 µM.
The matching figures for IPIGMQFDKV: 0.59 µM, 0.0404 µM, 5.28 µM, 0.394 µM and 4.91 µM.
For the sequence LLTTPKFTV, the Kd in assay [16] (source organism: Human alphaherpesvirus 1 strain 17) was 0.5 µM.
Consider YQHFVARVF, for which, in assay [3] (setting [17]), the Kd came out at 0.000399 µM.
With VVYIILAPK, the Kd in assay [1] (source organism: Mycobacterium tuberculosis) came out at 0.0274 µM; in [2] (source organism: Mycobacterium leprae) it was 0.299 µM.
For the sequence ILFYFANGI, the Kd came out at 0.139 µM in [3] (setting [17]) and 0.0925 µM in [4].
Turning to LMWITQCFL, in assay [16] (source organism: Homo sapiens), the Kd came to 0.078 µM.
In the case of AMKVDANYF, in [3] (setting [17]), the Kd came out at 0.000149 µM.
In the case of IMFAKTLDF, the results for the Kd in assay [3] (setting [17]) and in assay [4] were 0.000311 µM and 0.00682 µM, respectively.
For the sequence IPSTVKTNLY, the Kd is 0.213 µM in assay [11] (setting [17]); 10.3 µM in assay [12] (setting [17]); 0.248 µM in [13] (setting [17]); not below 69.6 µM in [14] (setting [17]); not below 25.6 µM in assay [15] (setting [17]).
Consider RKNHIYNSF, for which the Kd in assay [3] (setting [17]) is 0.000132 µM.
On the same count and under the same terms, the same measure for VQSFKINIF: 0.0513 µM.
Regarding VTYDYIIPK, the results for the Kd in assay [6] (setting [21]), in [1] (setting [21]) and in assay [2] (source organism: Kurkino virus) were 0.0508 µM, 0.0012 µM and 0.0424 µM, respectively.
Take MCISLSTAI: the Kd in assay [12] (source organism: Mammarenavirus lassaense) was found to be 0.601 µM.
With VPEFAKQYV, the Kd was 5.15 µM in assay [11] (setting [17]); 1.6 µM in [12] (setting [17]); not below 32.6 µM in assay [13] (setting [17]); 0.718 µM in assay [14] (setting [17]); 0.128 µM in assay [15] (setting [17]).
